Measured values as given in patent US20190218613A1, “METHODS OF DETECTING THE FORMATION OF CELLULAR CLUSTERS OF RNA” (The Regents of the University of California, priority 2017, published 2019).

System: 47× CAG RNA
Assay: In vitro RNA phase separation/gelation assay (fluorescence micrographs, index of dispersion)
Format: biochemical
Conditions: proteinase K 60 U/mL, DNase I 200 U/mL, RNaseA 0.7 U/mL; 10 minutes, room temperature
Experimental: For phase separation/gelation assays, RNAs were diluted to concentrations of 0.5 ng/μL to 0.5 μg/μL in 10 mM Tris pH 7.0, 10 mM MgCl2, 25 mM NaCl buffer, unless indicated otherwise. Nuclease-free buffer stocks were purchased from Ambion. RNA was denatured at 95° C. for 3 minutes and cooled down at 1-4° C. per minute to 37° C. final temperature in a thermocycler and imaged immediately. Samples were visualized using a custom spinning disk confocal microscope (Nikon Ti-Eclipse equipped with a Yokogawa CSU-X spinning disk module) using a×100, 1.49 numerical aperture oil immersion objective and an air-cooled EM-CCD (electron multiplying charge-coupled device). The extent of phase separation/gelation was quantified by the index of dispersion (σ^2/μ) of fluorescence intensity per pixel (pixel size 83 nm×83 nm). Briefly, variance in the fluorescence intensity per image was determined, and normalized to the mean fluorescence intensity in the solution phase of the RNA. For dilute solution (<10% of imaging area occupied with clusters), this parameter reports the extent of inhomogeneity in the sample. At least 20 independent imaging areas (about 1,800 μm^2 each) were analyzed for each condition to achieve a representative measure across the sample. Each datum point in the bar graphs represents one imaging area. […]

dissolution of 47× CAG RNA clusters by enzyme treatment	Molecule
not	proteinase K: protease enzyme (protein, UniProt P06873 106-384, looked up) Proteinase K: AAQTNAPWGLARISSTSPGTSTYYYDESAGQGSCVYVIDTGIEASHPEFEGRAQMVKTYYYSSRDGNGHGTHCAGTVGSRTYGVAKKTQLFGVKVLDDNGSGQYSTIIAGMDFVASDKNNRNCPKGVVASLSLGGGYSSSVNSAAARLQSSGVMVAVAAGNNNADARNYSPASEPSVCTVGASDRYDRRSSFSNYGSVLDIFGPGTSILSTWIGGSTRSISGTSMATPHVAGLAAYLMTLGKTTAASACRYIADTANKGDLSNIPFGTVNLLAYNNYQA
dissolved	RNase A: ribonuclease enzyme (protein, UniProt P61823 27-150, looked up) Ribonuclease pancreatic: KETAAAKFERQHMDSSTSAASSSNYCNQMMKSRNLTKDRCKPVNTFVHESLADVQAVCSQKNVACKNGQTNCYQSYSTMSITDCRETGSSKYPNCAYKTTQANKHIIVACEGNPYVPVHFDASV
